Data taken from publication PMC7537385.

Target: Exoc7-sfGFP (mouse, endogenously tagged) (mouse (endogenous in normal murine mammary gland cells)) (UniProt O35250)
Test: co-IP

Chain of UniProt O35250 (O35250 whole entry): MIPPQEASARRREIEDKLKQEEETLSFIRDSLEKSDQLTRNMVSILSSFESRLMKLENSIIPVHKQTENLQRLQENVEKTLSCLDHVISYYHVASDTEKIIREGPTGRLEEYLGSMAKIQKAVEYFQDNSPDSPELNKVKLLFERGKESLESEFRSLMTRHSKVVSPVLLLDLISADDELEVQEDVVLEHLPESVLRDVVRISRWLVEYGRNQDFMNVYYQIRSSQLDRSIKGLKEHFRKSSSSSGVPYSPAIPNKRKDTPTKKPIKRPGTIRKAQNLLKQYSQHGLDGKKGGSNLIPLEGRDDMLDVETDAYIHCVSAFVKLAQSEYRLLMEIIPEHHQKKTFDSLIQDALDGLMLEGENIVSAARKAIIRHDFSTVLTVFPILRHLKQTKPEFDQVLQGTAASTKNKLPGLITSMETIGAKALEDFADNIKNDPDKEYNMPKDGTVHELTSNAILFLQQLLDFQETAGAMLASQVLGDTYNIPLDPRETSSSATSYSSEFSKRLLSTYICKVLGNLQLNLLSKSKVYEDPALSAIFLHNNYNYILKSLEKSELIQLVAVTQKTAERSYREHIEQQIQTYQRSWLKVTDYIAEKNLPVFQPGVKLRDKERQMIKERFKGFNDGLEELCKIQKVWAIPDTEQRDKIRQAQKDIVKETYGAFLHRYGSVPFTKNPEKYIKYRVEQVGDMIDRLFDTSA

percent coprecipitated with Exoc7-GFP: 53%
Substance: Exoc2 truncated, ~48-kD N-terminal fragment (mouse) (domain or fragment)
